These results are taken from the Immune Epitope Database (IEDB).

For experiment [1], the target named is HLA-A*69:01. Kind of experiment: IEDB peptide-MHC binding, purified MHC/direct/fluorescence; filed as Kd, often an IC50 or EC50 that approximates it; ≥ and ≤ were set here for values at or beyond the usual limits of such assays.
For experiment [2], the target named is HLA-B*46:01. The experiment is described as above.
Experiment [3] addresses HLA-A*02:16. Described as above.
Experiment [4] deals with HLA-B*15:01. Described as above.
Experiment [5] deals with HLA-A*26:01. Described as above.
Experiment [6] concerns the target HLA-A*02:03. The description is as above.
In experiment [7] the target is HLA-A*02:12. The description is as above.
In experiment [8] the target is HLA-B*15:17. The experiment is described as above.
Experiment [9] addresses HLA-A*02:19. The experiment is described as above.
In experiment [10] the target is HLA-A*02:01. Described as above.
Experiment [11] addresses HLA-A*02:11. Described as above. Conditions: source organism: Entamoeba histolytica HM-1:IMSS.
The target in experiment [12] is HLA-B*27:03. The description is as above.
Experiment [13] addresses HLA-A*29:02. The description is as above. The following applies: source organism: Entamoeba histolytica HM-1:IMSS.
Experiment [14] deals with HLA-B*39:01. The description is as above.
Experiment [15] concerns the target HLA-A*24:03. The description is as above.
The target in experiment [16] is HLA-A*03:01. Described as above.
Experiment [17] addresses HLA-B*38:01. Described as above. Conditions: source organism: Giardia lamblia ATCC 50803.
The target in experiment [18] is HLA-A*31:01. Described as above.
The target of experiment [19] is HLA-B*08:01. The experiment is described as above. The following applies: source organism: Giardia lamblia ATCC 50803.
The target of experiment [20] is HLA-B*57:01. The experiment is described as above.
Experiment [21] addresses HLA-A*11:01. The description is as above.
In experiment [22] the target is HLA-B*08:02. The experiment is described as above.
Experiment [23] deals with HLA-B*40:01. Described as above. Conditions: source organism: Giardia lamblia ATCC 50803.
The target in experiment [24] is HLA-B*27:05. The description is as above. Conditions: source organism: Giardia lamblia ATCC 50803.
The target of experiment [25] is HLA-B*18:01. Described as above.
The target of experiment [26] is HLA-B*58:01. The experiment is described as above.
Experiment [27] deals with HLA-A*01:01. The experiment is described as above.
Experiment [28] concerns the target HLA-B*51:01. The description is as above.
For experiment [29], the target named is HLA-B*48:01. Described as above. Conditions: source organism: Giardia lamblia ATCC 50803.
Experiment [30] deals with HLA-B*07:02. The description is as above. Conditions: source organism: Giardia lamblia ATCC 50803.
For experiment [31], the target named is HLA-A*24:02. Kind of experiment: IEDB peptide-MHC binding, purified MHC/competitive/fluorescence; filed as Kd, often an IC50 or EC50 that approximates it; ≥ and ≤ were set here for values at or beyond the usual limits of such assays.
Experiment [32] concerns the target HLA-C*07:02. In words: IEDB peptide-MHC binding, purified MHC/direct/fluorescence; filed as Kd, often an IC50 or EC50 that approximates it; ≥ and ≤ were set here for values at or beyond the usual limits of such assays. Conditions: source organism: Listeria monocytogenes EGD-e.
Experiment [33] has as its target HLA-C*15:02. The experiment is described as above. The following applies: source organism: Listeria monocytogenes EGD-e.
Experiment [34] concerns the target HLA-C*14:02. The experiment is described as above. The following applies: source organism: Listeria monocytogenes EGD-e.
Experiment [35] has as its target HLA-B*08:01. Kind of experiment: IEDB peptide-MHC binding, purified MHC/competitive/fluorescence; filed as Kd, often an IC50 or EC50 that approximates it; ≥ and ≤ were set here for values at or beyond the usual limits of such assays. Conditions: source organism: Variola virus.
In experiment [36] the target is HLA-B*07:02. Described as above. Conditions: source organism: Variola virus.
The target in experiment [37] is HLA-A*26:03. In words: IEDB peptide-MHC binding, purified MHC/direct/fluorescence; filed as Kd, often an IC50 or EC50 that approximates it; ≥ and ≤ were set here for values at or beyond the usual limits of such assays. Conditions: source organism: Variola virus.
The target in experiment [38] is HLA-A*68:02. The experiment is described as above. The following applies: source organism: Camelpox virus M-96.
Experiment [39] deals with HLA-A*26:02. Described as above. The following applies: source organism: Variola virus.
The mark [40] stands for this setting: source organism: Entamoeba histolytica HM-1:IMSS.
The mark [41] stands for this setting: source organism: Giardia lamblia ATCC 50803.
Where [42] appears, read: source organism: Listeria monocytogenes EGD-e.
[43] abbreviates: source organism: Brucella suis 1330.
Where [44] appears, read: source organism: Camelpox virus M-96.

Usually Kd stands for the free concentration of one partner at which half of the binding sites on the other are occupied at equilibrium, for simple one-to-one binding. Lower therefore signals tighter binding. Regarding DSFAKQPQW, the Kd in [1] (setting [40]), in experiment [2] (setting [40]), in experiment [3] (setting [40]), in experiment [4] (setting [40]), in experiment [5] (setting [40]) and in [6] (setting [40]) was at least 20 µM in each case. The Kd in experiment [7] (setting [40]) was at least 20 µM; in experiment [8] (setting [40]), 0.204 µM; in experiment [9] (setting [40]), at least 20 µM; in experiment [10] (setting [40]) it was at least 20 µM; in experiment [11], at least 20 µM; in experiment [12] (setting [40]), at least 20 µM. Also, the Kd in experiment [13], in experiment [14] (setting [40]), in [15] (setting [40]) and in experiment [16] (setting [40]) was at least 20 µM in each case.

As for QPWTPVSSF, the Kd in experiment [1] (setting [41]), in experiment [17], in experiment [2] (setting [41]), in experiment [18] (setting [41]), in [4] (setting [41]) and in [19] was at least 20 µM each time. For the same sequence, the Kd in experiment [20] (setting [41]) was at least 20 µM; in experiment [5] (setting [41]), at least 20 µM; in experiment [21] (setting [41]), at least 20 µM; in [22] (setting [41]), at least 20 µM; in experiment [8] (setting [41]), 2.62 µM; in experiment [23], at least 20 µM. In addition, the dissociation constant (Kd) was at least 20 µM in experiment [10] (setting [41]); at least 20 µM in [24]; 2.44 µM in [25] (setting [41]); 19.1 µM in experiment [26] (setting [41]); at least 20 µM in experiment [27] (setting [41]); at least 20 µM in experiment [28] (setting [41]). Besides, the Kd was at least 20 µM in experiment [29], at least 20 µM in [16] (setting [41]) and 0.134 µM in experiment [30].

In experiment [31] (source organism: Influenza A virus H3N2), RYGPALSI yielded a Kd of at most 0.0001 µM.

On to RYPRSVLTF, for which the Kd is at most 0.0001 µM in [31] (setting [42]); 0.044 µM in experiment [32]; at least 20 µM in experiment [33]; at most 0.001 µM in experiment [15] (setting [42]); at most 0.001 µM in experiment [34].

With DPPEPLVRI, the dissociation constant Kd in experiment [1] (setting [43]), in experiment [2] (setting [43]), in experiment [3] (setting [43]), in experiment [4] (setting [43]), in experiment [20] (setting [43]) and in [5] (setting [43]) was at least 20 µM throughout. The Kd in experiment [6] (setting [43]), in experiment [7] (setting [43]), in [9] (setting [43]), in experiment [10] (setting [43]), in experiment [12] (setting [43]) and in experiment [25] (setting [43]) was at least 20 µM throughout. Further, the Kd in experiment [28] (setting [43]) is 1.87 µM; in [14] (setting [43]), at least 20 µM; in experiment [16] (setting [43]) it was at least 20 µM.

SWFNSFLTHAL: the equilibrium dissociation constant (Kd) in experiment [31] (source organism: Influenza A virus (A/X-31(H3N2))) stood at 0.15 µM.

IFLIITKVF: the Kd is at least 20 µM in [35]; 3 µM in experiment [36]; at least 20 µM in experiment [1] (setting [44]); at least 20 µM in experiment [18] (setting [44]); at least 20 µM in experiment [4] (setting [44]); at least 20 µM in [20] (setting [44]). For the same sequence, the Kd in [5] (source organism: Variola virus), in experiment [21] (setting [44]), in experiment [37], in experiment [22] (source organism: Variola virus), in experiment [8] (setting [44]) and in experiment [10] (setting [44]) was at least 20 µM throughout. In addition, the Kd in [38] was at least 20 µM; in experiment [25] (setting [44]), at least 20 µM; in experiment [26] (setting [44]) it was at least 20 µM; in [27] (setting [44]), at least 20 µM; in experiment [39] it was at least 20 µM; in experiment [15] (setting [44]) it was 1.1 µM.

LYKKLKREITF registered a Kd in experiment [31] (source organism: Influenza A virus (A/goose/Hong Kong/437-6/1999(H5N1))) of 0.0051 µM.
